The values below come from patent publication US20250290057A1, “LYTIC AGENT FOR ENTEROCOCCUS FAECALIS” (priority 2022, published 2025).

Series [1] concerns E. faecalis isolate OCU031_14_8. As to the kind of experiment: Lytic activity by turbidity (OD600) of cell resuspension liquid. It is filed as cell-based, Enterococcus faecalis. To be noted: final concentration of 50 μg/mL. As to the method: The E. faecalis isolate OCU031_14_8 was aerobically cultured in a BHI culture medium, and centrifuged at 3,000×g for 15 minutes for collection. The cell pellets were washed, and resuspended in a HiTrap buffer. The phage-derived endolysin was added at a final concentration of 50 μg/mL to the cell resuspension liquid. The turbidity (OD600) was measured with a TVS062CA BioPhoto recorder (ADVANTEC Co., Ltd., Tokyo, Japan) every 1 minute to measure the lytic activity.

Series [2] deals with biofilms of 11 E. faecalis isolates. As to the kind of experiment: Biofilm assay using crystal-violet staining. It is filed as cell-based, Enterococcus faecalis. The following applies: final concentration of 50 μg/mL, incubated overnight; all 11 E. faecalis strains. The protocol:
A biofilm assay was performed, using crystal-violet staining, in accordance with a method described in the past literature (Yang, Y., et al., J Appl Oral Sci., 2018, 26: e20170566; Shao, C., et al., J Proteome res., 2012, 11 (9): 4465-75; He Z., et al., Int J Antimicrob Agents., 2012, 40 (1): 30-5). This assay is a method in which a crystal violet pigment is adsorbed into a bacteria-derived biofilm (comprising an extracellular matrix and the like), and then, ethanol is added to the resulting biofilm to elute the crystal violet pigment, the absorbance of which is measured to quantify the amount of the pigment.
Specifically, each of the 11 species of E. faecalis isolates was cultured at 37° C. overnight in a BHI culture medium supplemented with aztreonam (20 μg/mL), polymyxinB (20 μg/mL), and amphotericinB (4 μg/mL). Then, the isolate was diluted 100-fold with a new BHI culture medium, inoculated into a 96-well flat-bottomed polystyrene microtiter plate (Corning, Inc., Arizona, USA, 353072), and aerobically cultured further at 37° C. for 24 hours. Then, the 96-well plate was washed once with 200 μL of a HiTrap buffer, and 200 μL of phage-derived endolysin or a vehicle (SUMO protein having a His tag added thereto) was added (at a final concentration of 50 μg/mL). […] The absorbance of the sample was measured at 570 nm. […]

In series [3] the test system is GVHD model mice to which E. faecalis OCU031_14_8 strain was administered. As to the kind of experiment: Administration to GVHD model mice to which E. faecalis was administered. In kind it is in vivo. The protocol: All the animal experiments were performed with the approval of the Animal Care and Use Committee of Osaka Metropolitan University. Germ-free C57BL/6 female mice (H2k^b) and SPF 129SvJ/JmsSlc female mice (6 to 8 weeks old) were purchased from SLC Japan Inc. (Hamamatsu, Japan) and CLEA Japan, Inc. (Tokyo, Japan) respectively. The mice were reared under temperature control (23±2° C.) under dark-period conditions from 8 pm to 8 am, and allowed to freely take sterile water and standard solid food for laboratory mice. The germ-free C57BL/6 mice were reared, one individual in one cage.
Before the stem cell transplantation, a suspension of E. faecalis OCU031_14_8 strain was orally administered to the germ-free C57BL/6 female mice. The suspension used was a suspension in which a 2.0×10^8 colony forming unit (cfu) was suspended in 200 μL of sterile PBS. […]
The survival rate after Day 0 was monitored every day. All the survival periods of the groups were statistically analyzed and compared using a generalized Wilcoxon test. […] The number of colonies formed was measured to quantify the amount of E. faecalis bacteria in the feces. […]

Series [4] relates to GVHD model mice in which patient feces (OCU031_14) with Enterococcus dominance was transplanted. The series is described as follows: Administration to GVHD model mice in which fecal sample was transplanted. In kind it is in vivo. To be noted: 200 μg orally three times a week. As to the method:
All the animal experiments were performed with the approval of the Animal Care and Use Committee of Osaka Metropolitan University. […] The survival rate after Day 0 was monitored every day, and the composition of the enteric microbes on each of Day 0 and Day 8 was analyzed by 16S rRNA gene sequencing.

Series [5] deals with E. faecalis strains JCM5803, JCM8902. As to the kind of experiment: Lytic activity using presence or absence of a bacterial lump as an index. In kind it is cell-based. The following applies: 50 μg/mL; for Lysis by endolysin: 37° C. Further details: key to Lysis by endolysin: lyzed: +; not lyzed: −. The protocol:
(§1) The hemolytic activity of each of the bacterial strains was measured with a hemolysis assay using a Nissui Plate Horse Blood Agar medium. The cytolysin-related gene was detected with PCR. The vancomycin resistance was evaluated using the method described in (2) in Example 2. The vanA gene and the vanB gene that are vancomycin-resistant genes were detected with PCR. Furthermore, each bacterial strain was aerobically cultured in a BHI culture medium, and centrifuged at 300×g for 5 minutes for collection. The cell pellets were washed, and resuspended in a HiTrap buffer. The phage-derived endolysin was added at a final concentration of 50 μg/mL to the cell resuspension liquid. The resulting suspension was incubated at 37° C., and the lytic activity was measured, using the presence or absence of a bacterial lump as an index.

Series [6] has as its system E. faecium strain JCM5804. The series is described as above. Further details: key to Lysis by endolysin: lyzed: +; not lyzed: −. To be noted: 50 μg/mL. It is filed as cell-based. The protocol: as §1

B1: phage-derived endolysin: endolysin of SEQ ID NO: 1 found in prophage sequences of 11 E. faecalis isolates; produced from a His-SUMO-labeled expression vector (protein)
chain: MTLNGIDISSWQSNINVGKEGVSADFVIIKATGGTGYINPDCDRAFQQAISSGKKVAVYHFANEVGLEGTAEQEAEFFLKNIKGYIGKAVLVLDWESTNKGDVPWAKRWLDYVQSKTGVKPMFYTYTNVLQSYNFSSIAKADYGLWLADYGANNPQGYSQPTPPSVPYWNFISMYQYTSNGQLPGWNGRLDLNVFFGDRNMWDKYANPKSNPTPAPPVPPKPKRRYGYRVDDLQFVNGIWQVRNDVLGQPDFDWTENGINVAYIDKINPATGENTPDQELKVGDYFAFQPSSVGIITEQYSLNGKTISHVQFPDEFIWLYTESVEKLIYG
modifications: His-SUMO tag; Enterococcus faecalis-derived prophage
notes: produced from a His-SUMO-labeled expression vector
As for B1, in series [1], the “Lytic activity (OD600 turbidity)” value was “lysed”. Further, the “Lysis of biofilm (crystal violet, absorbance at 570 nm)” value in series [2] is “lysed”. Also, the “Amount of the E. faecalis bacteria in the feces” value in series [3] (200 μg orally three times a week (10 mg/kg/day) from Day 0 until the third week) is reported as “noticeable decrease”. Also, the Survival rate in series [3] (25 days after the stem cell transplantation, 200 μg orally three times a week) was 100%; in series [4] (30 days after the stem cell transplantation), 100%. Also, the “Ratio of Enterococcus bacteria present in the enteric microbes” value in series [4] (8 days after the stem cell transplantation, 16S rRNA gene sequencing) is reported as “decreased significantly”. Also, the “Lytic activity” value in series [5] (JCM8902 strain, vancomycin-resistant and cytolysin-positive E. faecalis isolate) was “exhibited a lytic activity”; in series [6] (JCM5804 strain, E. faecium isolate) it was “did not exhibit a lytic activity”. Besides, the Lysis by endolysin result is “+” in series [5] (strain JCM5803); “+” in series [5] (strain JCM8902 (vancomycin-resistant, cytolysin-positive)); “−” in series [6] (strain JCM5804, 37° C.).
